Two molecules from publication PMC6422423, “Constitutively active BRS3 is a genuinely orphan GPCR in placental mammals” (PLoS Biology, 2019) can be followed below.

Where no end group is shown, it is not given here.

By Ki is commonly meant a dissociation constant, usually derived from enzyme kinetics or from competition with a known ligand. Lower therefore signals a stronger hold on the target.

What all share (details): one partner purified
In experiment [1] the target is T1, mouse bombesin receptor subtype-3 (mouse, UniProt O54798 1-399).
T1 construct: bombesin receptor subtype-3 of mouse (Mus musculus); also called mBRS3; mouse BRS3; source: HEK293, transiently transfected, on cells
T1 sequence (looked up): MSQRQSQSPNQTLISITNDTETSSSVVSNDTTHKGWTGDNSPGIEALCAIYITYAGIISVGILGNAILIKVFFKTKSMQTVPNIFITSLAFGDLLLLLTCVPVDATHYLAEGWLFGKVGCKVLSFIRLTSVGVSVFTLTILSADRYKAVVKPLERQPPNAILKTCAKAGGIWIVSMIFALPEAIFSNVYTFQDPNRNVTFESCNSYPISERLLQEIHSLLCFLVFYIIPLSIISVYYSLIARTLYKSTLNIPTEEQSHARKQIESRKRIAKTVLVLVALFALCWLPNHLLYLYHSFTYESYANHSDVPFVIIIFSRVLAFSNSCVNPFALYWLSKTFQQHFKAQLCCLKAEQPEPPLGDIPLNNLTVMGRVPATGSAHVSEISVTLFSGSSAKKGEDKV
Description: radioligand binding; displacement of 50 pM [125I]-Tyr42-GRP by unlabeled peptide on disaggregated transfected HEK293 cells; 1 h at 21°C; 24.5 mM HEPES pH 7.4, 98 mM NaCl; bound tracer separated by centrifugation.

Experiment [2] has as its target T2, human bombesin receptor subtype-3 (human, UniProt P32247 1-399).
T2 construct: bombesin receptor subtype-3 of human (Homo sapiens); also called hBRS3; human BRS3; source: HEK293, transiently transfected, on cells
T2 sequence (looked up): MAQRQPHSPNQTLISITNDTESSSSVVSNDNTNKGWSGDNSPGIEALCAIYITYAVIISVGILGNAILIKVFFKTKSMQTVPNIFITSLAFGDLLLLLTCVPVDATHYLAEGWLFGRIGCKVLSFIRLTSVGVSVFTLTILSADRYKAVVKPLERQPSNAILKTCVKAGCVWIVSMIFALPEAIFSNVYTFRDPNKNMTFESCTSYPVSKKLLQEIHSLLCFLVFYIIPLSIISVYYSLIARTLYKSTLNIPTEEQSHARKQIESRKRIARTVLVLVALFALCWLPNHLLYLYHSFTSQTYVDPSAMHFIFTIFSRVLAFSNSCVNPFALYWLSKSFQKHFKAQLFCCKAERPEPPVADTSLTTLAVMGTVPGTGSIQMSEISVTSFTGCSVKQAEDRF
The experiment is described as above.

Experiment [3] concerns the target T1, mouse bombesin receptor subtype-3. Description: radioligand binding; displacement of 50 pM [125I]-Tyr-NMB by unlabeled peptide on disaggregated transfected HEK293 cells; 1 h at 21°C; 24.5 mM HEPES pH 7.4, 98 mM NaCl; bound tracer separated by centrifugation.
For experiment [4], the target named is T2, human bombesin receptor subtype-3. The experiment is described as above.

B1: gastrin-releasing peptide, unlabeled ligand peptide of the radioligand binding assays (peptide)
peptide: APLQPGGSPALTKIYPRGSHWAVGHLM
modifications: ends and bridges not checked
notes: gastrin-releasing peptide, 27 residues; No C-terminal amide is printed for this peptide; also called GRP; source: synthetic peptide (Anhui Guoping Pharmaceutical)
Turning to B1, the Ki in experiment [1] and in experiment [2] was above 1000 nM in each case.

B2: neuromedin B, unlabeled ligand peptide of the radioligand binding assays (peptide)
peptide: YKIKVNPRGNLWATGHFM
modifications: ends and bridges not checked
notes: The N-terminal Tyr may have been added for iodination (surmise); No C-terminal amide is printed for this peptide; also called NMB; source: synthetic peptide (Anhui Guoping Pharmaceutical)
Take B2: the Ki in experiment [3] and in experiment [4] was above 1000 nM each time.
